Experiment [1] addresses GFP-tagged full length Shank3 S685A (rat) (rat). Description: co-IP.
Experiment [2] addresses GFP-tagged full length Shank3 S685D (rat) (rat). The experiment is described as follows: co-IP.
Experiment [3] addresses GST-Shank3 (572-691) wild type, pre-phosphorylated by CaMKIIα at Ser685 (rat). The experiment is described as follows: pull-down.

Chain of GST-Shank3 (572-691) wild type, pre-phosphorylated by CaMKIIα at Ser685 (rat) (Q9JLU4 572-691): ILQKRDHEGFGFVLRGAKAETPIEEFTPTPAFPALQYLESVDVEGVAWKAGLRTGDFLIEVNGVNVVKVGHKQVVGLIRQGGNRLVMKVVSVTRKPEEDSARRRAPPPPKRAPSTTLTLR

For the substance “N-terminal HA-tagged ABI1 (Abelson interactor 1), full length (from UniProt Q8IZP0 1-508) (natural protein)”, the percent reduction of co-immunoprecipitated HA-ABI1 (HA/GFP) compared to WT in experiment [1] stood at 37%; in experiment [2], 32%. In experiment [3], the HA-ABI1 binding (HA/GST) relative to no CaMKII condition was determined as 148%.
